Read-outs that look alike come from different tables or passages of the source.
Legend:
[1] = target: T1, Hfq WT (Table 3) (Escherichia coli, UniProt P0A6X3 2-69); assay: fluorescence polarization
[2] = target: T2, Hfq F42W (Escherichia coli, UniProt P0A6X3 2-69, F42W); assay: tryptophan fluorescence quenching
[3] = target: T3, Hfq Core (Escherichia coli, UniProt P0A6X3 2-69); assay: fluorescence polarization
[4] = target: T3, Hfq Core; assay: fluorescence polarization; remark: listed apart in the source
[5] = target: Hfq full length WT (Escherichia coli, UniProt P0A6X3 2-102); assay: fluorescence polarization
[6] = target: T2, Hfq F42W; assay: tryptophan fluorescence quenching; remark: listed apart in the source
[7] = target: Sa Hfq (Staphylococcus aureus, UniProt A0A0H3JV59 1-77); assay: fluorescence polarization
[8] = target: Hfq(2-69:R16A) (Escherichia coli, UniProt P0A6X3 2-69, R16A); assay: fluorescence polarization
[9] = target: Hfq(2-69:N13A) (Escherichia coli, UniProt P0A6X3 2-69, N13A); assay: fluorescence polarization
[10] = target: Hfq(2-69:R16A/R17A) (Escherichia coli, UniProt P0A6X3 2-69, R16A;R17A); assay: fluorescence polarization
[11] = target: Hfq(2-69:Q41A) (Escherichia coli, UniProt P0A6X3 2-69, Q41A); assay: fluorescence polarization
[12] = target: Hfq(2-69:Q41E) (Escherichia coli, UniProt P0A6X3 2-69, Q41E); assay: fluorescence polarization
[13] = target: T1, Hfq WT (Table 3); assay: fluorescence polarization; remark: listed apart in the source

AUUUUUUCGAAUCGAAAGGUUCA (structured_RNA) [site A]
Kd [1]: 22.7 ± 1.5 nM
binding result [2]: binds

B1: 3-base A-tract DNA (dsDNA)
DNA 1: CGGCAAACGAAACGGCAAACGAAACGGCAAACGAAA
DNA 2: TTTCGTTTGCCGTTTCGTTTGCCGTTTCGTTTGCCG
Kd [3]: 19.4 ± 6 nM

B2: RacA DNA 14 bp (dsDNA)
DNA 1: TGACGCCGGCGTCA
DNA 2: TGACGCCGGCGTCA
Kd [3]: 16.2 ± 3.7 nM

B3: xtal DNA, 30 bp with three 6-bp A-tracts (dsDNA)
DNA 1: CGGCAAAAAACGGCAAAAAACGGCAAAAAA
DNA 2: TTTTTTGCCGTTTTTTGCCGTTTTTTGCCG
Kd [4]: 94 ± 8 nM
Kd [5]: 175 ± 4.5 nM
binding result [6]: binds
Kd [7]: 6400 nM
Kd [8]: 34.1 ± 7 nM
Kd [9]: 6 ± 2.3 nM
Kd [3]: 4.9 ± 2.4 nM
Kd [10]: 66.8 ± 10.6 nM
Kd [11]: 300 ± 33.6 nM
Kd [12]: 47.1 ± 4.7 nM

AAAAAAAAAAAAAAAAAAAAAAAAAAA (ssRNA) [A27]
binding result [13]: binds

CAUGAUUCUUAUACGUACGACGGAAGAUGAGAAUUAUGGU (structured_RNA) [Hairpin 2]
Kd [1]: 61.5 ± 18.3 nM
binding result [6]: binds

Reference: PMC7144919
